The data set has as its target T1, PrfA L140F L140F (Listeria monocytogenes (NF-L1166)) (UniProt P22262).
T1 sequence: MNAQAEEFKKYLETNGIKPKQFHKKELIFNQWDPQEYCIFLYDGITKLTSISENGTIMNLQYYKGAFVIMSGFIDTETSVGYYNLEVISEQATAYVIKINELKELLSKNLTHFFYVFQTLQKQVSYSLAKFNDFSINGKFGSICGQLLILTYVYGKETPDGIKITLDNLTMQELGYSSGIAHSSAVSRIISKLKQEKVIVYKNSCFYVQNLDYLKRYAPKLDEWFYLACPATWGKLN
Kind of data set: EMSA. In general terms: Mobility shift assays separate free from complexed probe on a gel.

Turning to “GATGCTTCTAAAAAAGTTGCTGAAGCTTGGGAAGCAGTTGGGGTTAACTGATTAACAAATGTTAGAGAAAAATTAATTCTCCAAGTGATATTCTTAAAATAATTCATGAATA (double strand) [actA promoter]”, the binding entry is on record as “binds”.

The values are drawn from article PMC2646509.
